Measured values: PMC9646764 (2022)

B1: TcdB4.2_(1286-1805) (domain or fragment)
chain: TNIRISLDSNTRSFIVPVITTEYIREKLSYSFYGSGGTYALSLSQYNMNINIELNENDTWVIDVDNVVRDVTIESDKIKKGDLIENILSKLSIEDNKIILDNHEINFSGTLNGGNGFVSLTFSILEGINAVIEVDLLSKSYKVLISGELKTLMANSNSVQQKIDYIGLNSELQKNIPYSFMDDEGKENGFINCFTKEGLFVSELSDVVLIIKVYMDNSKPPFGYYSNDLKDVKVITKDDVIIITGYYLKDDIKISLSFTIQDKNTIKLNGVYLDENGVAEILKFMNKKGSTNTSDSLMSFLESMNIKSIFIKSLKSNAKLILDTNFIISGTTFIGQFEFICDKDNNIQPYFIKFNTLETKYTLYVGNRQNMIVEPNYNLDDSGDISSTVINFSQKYLYGIDSCVNKVVISPGIYTDEINITPVHEANNTYPEVIVLDTNYISEKINININDLSIRYVWSNDGSDFILMSTDEENKVSQVKIRFTNVFKGNTISDKISFNFSDKQDISINKIISTFTPSYY
B2: Chicken TFPI-Fc (Fc fusion)
chain: TDDSDGEEEDVLGVPLPPLKLGHSDCALKADEGPCKAIHVRFYFNIQSRECEIFEYGGCHGNANNFLTLEECQNKCVVTELPLEVMLAKNEREKPNFCYQEKDPGICRGFFSRYFYNKETKICEIFKYGGCLGNQNNFKSLEECQTTCQGNPNLLSVAPDEEHPNHMNSSSPEEERNQFPGIVE
B3: mTFPI-Fc (Fc-tagged mouse TFPI) (Fc fusion)
chain: LSEEADDTDSELGSMKPLHTFCAMKADDGPCKAMIRSYFFNMYTHQCEEFIYGGCEGNENRFDTLEECKKTCIPGYEKTAVKAASGAERPDFCFLEEDPGLCRGYMKRYLYNNQTKQCERFVYGGCLGNRNNFETLDECKKICENPVHSPSPVNEVQMSDYVTDGNTVTDRSTVNNIVVPQSPKVPRRR

How the values were obtained:
Test in all cases: BLI
[1] = target: B2
[2] = target: B3
[3] = target: TFPI-Fc (human IgG-Fc-tagged TFPI without the GPI anchor) (human, UniProt P10646 29-209)
[4] = target: B2
[5] = target: TcdB10.1_(1285-1804) ( | Clostridioides difficile)

Chain of TFPI-Fc (human IgG-Fc-tagged TFPI without the GPI anchor) (P10646 29-209): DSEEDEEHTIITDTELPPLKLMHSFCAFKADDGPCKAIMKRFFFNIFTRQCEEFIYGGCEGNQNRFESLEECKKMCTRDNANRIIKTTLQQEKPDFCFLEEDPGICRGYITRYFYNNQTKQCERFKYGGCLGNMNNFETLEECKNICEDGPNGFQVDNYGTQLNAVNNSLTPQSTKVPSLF

With B1 the koff [1] was 0.00885 s⁻¹, the koff [2] was 0.00344 s⁻¹ and the koff [3] was 0.00708 s⁻¹. For the same binder, the Kd [4] was 336 nM.

Binder B2 has a Kd [5] of 70.5 nM and a koff [5] of 0.006 s⁻¹.

Binder B3 has a Kd [5] of 465 nM and a koff [5] of 0.00637 s⁻¹.
